Experimental findings from PMC9482448 (Nature, 2021) are described below.

The test addresses human SMCT1 (monocarboxylate transporter of the SGLT family) (Homo sapiens (Human)., UniProt Q8N695). The test can be described thus: cryo-EM structure.

Sequence of human SMCT1 (monocarboxylate transporter of the SGLT family) (Q8N695 whole entry): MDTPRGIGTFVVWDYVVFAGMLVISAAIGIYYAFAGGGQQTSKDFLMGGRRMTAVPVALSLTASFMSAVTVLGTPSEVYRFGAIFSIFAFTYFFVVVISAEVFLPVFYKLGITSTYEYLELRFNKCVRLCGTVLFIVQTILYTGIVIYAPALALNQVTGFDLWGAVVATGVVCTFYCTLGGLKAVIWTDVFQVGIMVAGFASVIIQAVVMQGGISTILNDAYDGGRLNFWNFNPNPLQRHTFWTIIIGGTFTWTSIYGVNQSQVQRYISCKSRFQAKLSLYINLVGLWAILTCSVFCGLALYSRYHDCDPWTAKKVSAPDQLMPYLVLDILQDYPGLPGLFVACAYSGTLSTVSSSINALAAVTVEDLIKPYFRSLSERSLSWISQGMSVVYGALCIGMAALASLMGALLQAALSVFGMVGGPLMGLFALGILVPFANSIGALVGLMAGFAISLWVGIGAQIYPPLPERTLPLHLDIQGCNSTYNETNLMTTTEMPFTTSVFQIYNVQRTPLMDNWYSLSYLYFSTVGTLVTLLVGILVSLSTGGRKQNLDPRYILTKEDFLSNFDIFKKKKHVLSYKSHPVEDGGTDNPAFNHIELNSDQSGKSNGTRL

B1: nanobody Nb2 (binds SMCT1) (VHH)
VHH: QVQLQESGGGLVQAGGSLRLSCAASGNISTRAGMGWYRQAPGKEREFVASINWGAITNYADSVKGRFTISRDNAKNTVYLQMNSLKPEDTAVYYCAVEYKYGPQRSDTYYYWGQGTQVTVSS
Consider B1, for which the binding result was “binds”.
